Test results from article PMC5639694 (Journal of medicinal chemistry, 2017).
Square brackets hold non-standard residues; d marks the D form. Dap = NC[C@H](N)C(=O)O

How the values were obtained:
mMC4R [1] = biological target: T1, mMC4R (Mus musculus, UniProt P56450); settings: AGRP/NDP-MSH chimeric ligands; cited from earlier work
[2] = biological target: mouse melanocortin 1 receptor (mouse) (UniProt Q01727)
[3] = biological target: mouse melanocortin 5 receptor (mouse) (UniProt P41149)
[4] = biological target: mouse melanocortin 3 receptor (mouse) (UniProt P33033)
mouse melanocortin 3 receptor (mouse), sequence (P33033 whole entry): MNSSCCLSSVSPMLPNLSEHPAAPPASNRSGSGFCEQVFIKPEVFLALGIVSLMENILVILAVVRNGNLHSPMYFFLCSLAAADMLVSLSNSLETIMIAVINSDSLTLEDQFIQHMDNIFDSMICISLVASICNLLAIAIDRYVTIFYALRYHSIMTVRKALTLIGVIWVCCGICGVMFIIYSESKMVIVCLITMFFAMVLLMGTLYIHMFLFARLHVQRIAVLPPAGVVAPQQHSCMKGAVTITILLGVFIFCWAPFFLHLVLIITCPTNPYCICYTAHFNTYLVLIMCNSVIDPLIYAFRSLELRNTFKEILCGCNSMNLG

mMC4R [5] = biological target: T1, mMC4R; settings: read-out: mMC4R EC50; agonist; previously reported values; cited from earlier work
mMC5R = mMC5R (Mus musculus, UniProt P41149); settings: read-out: mMC5R EC50; agonist; previously reported values; cited from earlier work
mMC5R, sequence (P41149 whole entry): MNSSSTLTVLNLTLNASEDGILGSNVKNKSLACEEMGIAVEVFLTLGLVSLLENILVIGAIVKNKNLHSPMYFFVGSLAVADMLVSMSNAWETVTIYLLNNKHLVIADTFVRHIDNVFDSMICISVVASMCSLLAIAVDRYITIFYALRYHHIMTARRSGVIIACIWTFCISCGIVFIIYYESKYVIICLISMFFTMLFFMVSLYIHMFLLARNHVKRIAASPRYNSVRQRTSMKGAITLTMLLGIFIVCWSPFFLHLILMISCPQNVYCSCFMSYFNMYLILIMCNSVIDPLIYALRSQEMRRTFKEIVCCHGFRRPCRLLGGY

[6] = biological target: mouse melanocortin 4 receptor (mouse) (UniProt P56450)
mouse melanocortin 4 receptor (mouse), sequence (P56450 whole entry): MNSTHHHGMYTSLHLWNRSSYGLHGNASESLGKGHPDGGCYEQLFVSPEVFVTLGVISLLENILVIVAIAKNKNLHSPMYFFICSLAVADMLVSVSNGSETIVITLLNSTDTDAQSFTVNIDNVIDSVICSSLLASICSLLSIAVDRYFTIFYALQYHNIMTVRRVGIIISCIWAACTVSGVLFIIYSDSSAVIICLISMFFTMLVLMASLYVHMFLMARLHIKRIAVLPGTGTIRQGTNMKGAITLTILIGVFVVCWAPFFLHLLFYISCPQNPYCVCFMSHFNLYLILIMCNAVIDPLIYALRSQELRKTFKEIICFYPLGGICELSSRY

mouse melanocortin 1 receptor (mouse), sequence (Q01727 whole entry): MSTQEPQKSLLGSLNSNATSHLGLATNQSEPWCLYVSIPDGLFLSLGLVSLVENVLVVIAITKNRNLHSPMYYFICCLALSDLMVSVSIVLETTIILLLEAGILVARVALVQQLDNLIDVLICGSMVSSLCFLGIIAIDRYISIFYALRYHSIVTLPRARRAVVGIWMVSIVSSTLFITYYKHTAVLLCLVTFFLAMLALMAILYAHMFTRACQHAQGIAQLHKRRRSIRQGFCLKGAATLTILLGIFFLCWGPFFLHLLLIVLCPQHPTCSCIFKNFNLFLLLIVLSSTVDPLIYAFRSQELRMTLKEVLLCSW
T1 sequence (P56450 whole entry): as the sequence (P56450 whole entry) above
mouse melanocortin 5 receptor (mouse), sequence (P41149 whole entry): as the sequence (P41149 whole entry) above

Molecule	selectivity for the mMC4R over the mMC3R (reported) (mMC4R [1]) [fold]	agonist EC50 (cAMP AlphaScreen, HEK293 cells stably expressing the receptor) [2] [nM]	agonist EC50 (cAMP AlphaScreen, HEK293 cells stably expressing the receptor) [3] [nM]	agonist EC50 (cAMP AlphaScreen, HEK293 cells stably expressing the receptor) [4] [nM]	agonist EC50 (cAMP AlphaScreen, HEK293 cells stably expressing the receptor) [6] [nM]	also measured
Tyr-c[Asp-His-DPhe-Arg-Trp-Asn-Ala-Phe-Dap]-Tyr-NH2	5					
cyclo(PH[dF]RW[Dap]AF[dP])		24	18	260		
Tyr-c[Cys-His-DPhe-Arg-Trp-Asn-Ala-Phe-Cys]-Tyr-NH2	7					
CC(=O)N[C@@H](Cc1cnc[nH]1)C(=O)N[C@H](Cc1ccccc1)C(=O)N[C@@H](CCCN=C(N)N)C(=O)N[C@@H](Cc1c[nH]c2ccccc12)C(N)=O [HfRW, Ac-His-DPhe-Arg-Trp-NH2]						EC50 (mMC4R [5]): 14 ± 2 nM; EC50 (mMC5R): 10 ± 3 nM
cyclo(PH[dF]RWNA[dP]) (SMILES C[C@@H]1NC(=O)[C@H](CC(N)=O)NC(=O)[C@H](Cc2c[nH]c3ccccc23)NC(=O)[C@H](CCCNC(=N)N)NC(=O)[C@@H](Cc2ccccc2)NC(=O)[C@H](Cc2c[nH]cn2)NC(=O)[C@@H]2CCCN2C(=O)[C@H]2CCCN2C1=O) [c[Pro-His-DPhe-Arg-Trp-Asn-Ala-DPro]]		12	2.1		29	
cyclo(PH[dF]RWNAF[dP]) (SMILES C[C@@H]1NC(=O)[C@H](CC(N)=O)NC(=O)[C@H](Cc2c[nH]c3ccccc23)NC(=O)[C@H](CCCNC(=N)N)NC(=O)[C@@H](Cc2ccccc2)NC(=O)[C@H](Cc2c[nH]cn2)NC(=O)[C@@H]2CCCN2C(=O)[C@H]2CCCN2C(=O)[C@H](Cc2ccccc2)NC1=O) [c[Pro-His-DPhe-Arg-Trp-Asn-Ala-Phe-DPro]]		0.35	0.45	32	1.4	
